Measurements taken from patent publication US20260248892A1 (Sanofi, published 2026).

B1: scl-Fc fusion protein INS012 (Fc fusion)
chain: FVNQHLCGSHLVEALHLVCGERGFHYTPKTEEYPGDVGIVEQCCTSICSLSQLEDYCGGEAEDLQVGQVELGGGPGAGSLQPEGSLQGGPSVFLFPPKPKDTLMISRTPEVTCVVVDVSHEDPEVKFNWYVDGVEVHNAKTKPREEQYNSTYRVVSVLTVLHQDWLNGKEYKCKVSNKALPAPIEKTISKAKGQPREPQVYTLPPSRDELTKNQVSLTCLVKGFYPSDIAVEWESNGQPENNYKTTPPVLDSDGSFFLYSKLTVDKSRWQQGNVFSCSVMHEALHNHYTQKSLSLSPGGGGGSAESKYGPPCPPCPA
B2: scl-Fc fusion protein INS016 (Fc fusion)
chain: FVNQHLCGSHLVEALHLVCGERGFHYTPKTGSYPGGVGIVEQCCTSICSLSQLENYCGGEAEDLQVGQVELGGGPGAGSLQPEGSLQGGPSVFLFPPKPKDTLMISRTPEVTCVVVDVSHEDPEVKFNWYVDGVEVHNAKTKPREEQYNSTYRVVSVLTVLHQDWLNGKEYKCKVSNKALPAPIEKTISKAKGQPREPQVYTLPPSRDELTKNQVSLTCLVKGFYPSDIAVEWESNGQPENNYKTTPPVLDSDGSFFLYSKLTVDKSRWQQGNVFSCSVMHEALHNHYTQKSLSLSPGGGGGSAESKYGPPCPPCPA
B3: scl-Fc fusion protein INS013 (Fc fusion)
chain: FVNQHLCGSHLVEALHLVCGERGFHYTPKTGSYPGGVGIVEQCCTSICSLSQLEDYCGGEAEDLQVGQVELGGGPGAGSLQPEGSLQGGPSVFLFPPKPKDTLMISRTPEVTCVVVDVSHEDPEVKFNWYVDGVEVHNAKTKPREEQYNSTYRVVSVLTVLHQDWLNGKEYKCKVSNKALPAPIEKTISKAKGQPREPQVYTLPPSRDELTKNQVSLTCLVKGFYPSDIAVEWESNGQPENNYKTTPPVLDSDGSFFLYSKLTVDKSRWQQGNVFSCSVMHEALHNHYTQKSLSLSPGGGGGSAESKYGPPCPPCPA
B4: scl-Fc fusion protein INS002 (Fc fusion)
chain: FVNQHLCGSHLVEALYLVCGERGFFYTDKTEEYPGDVGIVEQCCTSICSLEQLENYCGGEAEDLQVGQVELGGGPGAGSLQPLALEGSLQGGPSVFLFPPKPKDTLMISRTPEVTCVVVDVSHEDPEVKFNWYVDGVEVHNAKTKPREEQYNSTYRVVSVLTVLHQDWLNGKEYKCKVSNKALPAPIEKTISKAKGQPREPQVYTLPPSRDELTKNQVSLTCLVKGFYPSDIAVEWESNGQPENNYKTTPPVLDSDGSFFLYSKLTVDKSRWQQGNVFSCSVMHEALHNHYTQKSLSLSPGGGGGSAESKYGPPCPPCPA
B5: scl-Fc fusion protein INS005 (Fc fusion)
chain: SFVNQHLCGSHLVEALHLVCGERGFAYTDKTEEYPGDVGIVEQCCTSICSLEQLENYCGGEAEDLQVGQVELGGGPGAGSLQPEGSLQGGPSVFLFPPKPKDTLMISRTPEVTCVVVDVSHEDPEVKFNWYVDGVEVHNAKTKPREEQYNSTYRVVSVLTVLHQDWLNGKEYKCKVSNKALPAPIEKTISKAKGQPREPQVYTLPPSRDELTKNQVSLTCLVKGFYPSDIAVEWESNGQPENNYKTTPPVLDSDGSFFLYSKLTVDKSRWQQGNVFSCSVMHEALHNHYTQKSLSLSPGGGGGSAESKYGPPCPPCPA
B6: scl-Fc fusion protein INS014 (Fc fusion)
chain: SFVNQHLCGSHLVEALHLVCGERGFHYTPKTGSYPGGVGIVEQCCTSICSLSQLEDYCGGEAEDLQVGQVELGGGPGAGSLQPEGSLQGGPSVFLFPPKPKDTLMISRTPEVTCVVVDVSHEDPEVKFNWYVDGVEVHNAKTKPREEQYNSTYRVVSVLTVLHQDWLNGKEYKCKVSNKALPAPIEKTISKAKGQPREPQVYTLPPSRDELTKNQVSLTCLVKGFYPSDIAVEWESNGQPENNYKTTPPVLDSDGSFFLYSKLTVDKSRWQQGNVFSCSVMHEALHNHYTQKSLSLSPGGGGGSAESKYGPPCPPCPA
B7: scl-Fc fusion protein INS007 (Fc fusion)
chain: SFVNQHLCGSHLVEALHLVCGERGFAYTDKTGSYPGGVGIVEQCCTSICSLEQLENYCGGEAEDLQVGQVELGGGPGAGSLQPEGSLQGGPSVFLFPPKPKDTLMISRTPEVTCVVVDVSHEDPEVKFNWYVDGVEVHNAKTKPREEQYNSTYRVVSVLTVLHQDWLNGKEYKCKVSNKALPAPIEKTISKAKGQPREPQVYTLPPSRDELTKNQVSLTCLVKGFYPSDIAVEWESNGQPENNYKTTPPVLDSDGSFFLYSKLTVDKSRWQQGNVFSCSVMHEALHNHYTQKSLSLSPGGGGGSAESKYGPPCPPCPA
B8: scl-Fc fusion protein INS009 (Fc fusion)
chain: SFVNQHLCGSHLVEALELVCGERGFHYTPKTGSYPGGVGIVEQCCTSICSLEQLENYCGGEAEDLQVGQVELGGGPGAGSLQPEGSLQGGPSVFLFPPKPKDTLMISRTPEVTCVVVDVSHEDPEVKFNWYVDGVEVHNAKTKPREEQYNSTYRVVSVLTVLHQDWLNGKEYKCKVSNKALPAPIEKTISKAKGQPREPQVYTLPPSRDELTKNQVSLTCLVKGFYPSDIAVEWESNGQPENNYKTTPPVLDSDGSFFLYSKLTVDKSRWQQGNVFSCSVMHEALHNHYTQKSLSLSPGGGGGSAESKYGPPCPPCPA
B9: scl-Fc fusion protein INS006 (Fc fusion)
chain: SFVNQHLCGSHLVEALELVCGERGFHYTDKTEEYPGDVGIVEQCCTSICSLEQLENYCGGEAEDLQVGQVELGGGPGAGSLQPEGSLQGGPSVFLFPPKPKDTLMISRTPEVTCVVVDVSHEDPEVKFNWYVDGVEVHNAKTKPREEQYNSTYRVVSVLTVLHQDWLNGKEYKCKVSNKALPAPIEKTISKAKGQPREPQVYTLPPSRDELTKNQVSLTCLVKGFYPSDIAVEWESNGQPENNYKTTPPVLDSDGSFFLYSKLTVDKSRWQQGNVFSCSVMHEALHNHYTQKSLSLSPGGGGGSAESKYGPPCPPCPA
B10: scl-Fc fusion protein INS011 (Fc fusion)
chain: SFVNQHLCGSHLVEALHLVCGERGFAYTPKTGSYPGGVGIVEQCCTSICSLEQLENYCGGEAEDLQVGQVELGGGPGAGSLQPEGSLQGGPSVFLFPPKPKDTLMISRTPEVTCVVVDVSHEDPEVKFNWYVDGVEVHNAKTKPREEQYNSTYRVVSVLTVLHQDWLNGKEYKCKVSNKALPAPIEKTISKAKGQPREPQVYTLPPSRDELTKNQVSLTCLVKGFYPSDIAVEWESNGQPENNYKTTPPVLDSDGSFFLYSKLTVDKSRWQQGNVFSCSVMHEALHNHYTQKSLSLSPGGGGGSAESKYGPPCPPCPA
B11: scl-Fc fusion protein INS015 (Fc fusion)
chain: SFVNQHLCGSHLVEALHLVCGERGFHYTPKTEEYPGDVGIVEQCCTSICSLSQLENYCGGEAEDLQVGQVELGGGPGAGSLQPEGSLQGGPSVFLFPPKPKDTLMISRTPEVTCVVVDVSHEDPEVKFNWYVDGVEVHNAKTKPREEQYNSTYRVVSVLTVLHQDWLNGKEYKCKVSNKALPAPIEKTISKAKGQPREPQVYTLPPSRDELTKNQVSLTCLVKGFYPSDIAVEWESNGQPENNYKTTPPVLDSDGSFFLYSKLTVDKSRWQQGNVFSCSVMHEALHNHYTQKSLSLSPGGGGGSAESKYGPPCPPCPA
B12: scl-Fc fusion protein INS008 (Fc fusion)
chain: SFVNQHLCGSHLVEALELVCGERGFHYTDKTGSYPGGVGIVEQCCTSICSLEQLENYCGGEAEDLQVGQVELGGGPGAGSLQPEGSLQGGPSVFLFPPKPKDTLMISRTPEVTCVVVDVSHEDPEVKFNWYVDGVEVHNAKTKPREEQYNSTYRVVSVLTVLHQDWLNGKEYKCKVSNKALPAPIEKTISKAKGQPREPQVYTLPPSRDELTKNQVSLTCLVKGFYPSDIAVEWESNGQPENNYKTTPPVLDSDGSFFLYSKLTVDKSRWQQGNVFSCSVMHEALHNHYTQKSLSLSPGGGGGSAESKYGPPCPPCPA
B13: scl-Fc fusion protein INS010 (Fc fusion)
chain: SFVNQHLCGSHLVEALHLVCGERGFAYTPKTEEYPGDVGIVEQCCTSICSLEQLENYCGGEAEDLQVGQVELGGGPGAGSLQPEGSLQGGPSVFLFPPKPKDTLMISRTPEVTCVVVDVSHEDPEVKFNWYVDGVEVHNAKTKPREEQYNSTYRVVSVLTVLHQDWLNGKEYKCKVSNKALPAPIEKTISKAKGQPREPQVYTLPPSRDELTKNQVSLTCLVKGFYPSDIAVEWESNGQPENNYKTTPPVLDSDGSFFLYSKLTVDKSRWQQGNVFSCSVMHEALHNHYTQKSLSLSPGGGGGSAESKYGPPCPPCPA

What was measured:
Experiment in all cases: cell-based or functional assay
[1] = target: human insulin receptor isoform A (human, UniProt P06213-2 28-1370)
[2] = target: human insulin receptor isoform B (human, UniProt P06213 28-1382)
Rat IR = Rat IR (rat, UniProt P15127 27-1383)
Rat IR, sequence (P15127 27-1383): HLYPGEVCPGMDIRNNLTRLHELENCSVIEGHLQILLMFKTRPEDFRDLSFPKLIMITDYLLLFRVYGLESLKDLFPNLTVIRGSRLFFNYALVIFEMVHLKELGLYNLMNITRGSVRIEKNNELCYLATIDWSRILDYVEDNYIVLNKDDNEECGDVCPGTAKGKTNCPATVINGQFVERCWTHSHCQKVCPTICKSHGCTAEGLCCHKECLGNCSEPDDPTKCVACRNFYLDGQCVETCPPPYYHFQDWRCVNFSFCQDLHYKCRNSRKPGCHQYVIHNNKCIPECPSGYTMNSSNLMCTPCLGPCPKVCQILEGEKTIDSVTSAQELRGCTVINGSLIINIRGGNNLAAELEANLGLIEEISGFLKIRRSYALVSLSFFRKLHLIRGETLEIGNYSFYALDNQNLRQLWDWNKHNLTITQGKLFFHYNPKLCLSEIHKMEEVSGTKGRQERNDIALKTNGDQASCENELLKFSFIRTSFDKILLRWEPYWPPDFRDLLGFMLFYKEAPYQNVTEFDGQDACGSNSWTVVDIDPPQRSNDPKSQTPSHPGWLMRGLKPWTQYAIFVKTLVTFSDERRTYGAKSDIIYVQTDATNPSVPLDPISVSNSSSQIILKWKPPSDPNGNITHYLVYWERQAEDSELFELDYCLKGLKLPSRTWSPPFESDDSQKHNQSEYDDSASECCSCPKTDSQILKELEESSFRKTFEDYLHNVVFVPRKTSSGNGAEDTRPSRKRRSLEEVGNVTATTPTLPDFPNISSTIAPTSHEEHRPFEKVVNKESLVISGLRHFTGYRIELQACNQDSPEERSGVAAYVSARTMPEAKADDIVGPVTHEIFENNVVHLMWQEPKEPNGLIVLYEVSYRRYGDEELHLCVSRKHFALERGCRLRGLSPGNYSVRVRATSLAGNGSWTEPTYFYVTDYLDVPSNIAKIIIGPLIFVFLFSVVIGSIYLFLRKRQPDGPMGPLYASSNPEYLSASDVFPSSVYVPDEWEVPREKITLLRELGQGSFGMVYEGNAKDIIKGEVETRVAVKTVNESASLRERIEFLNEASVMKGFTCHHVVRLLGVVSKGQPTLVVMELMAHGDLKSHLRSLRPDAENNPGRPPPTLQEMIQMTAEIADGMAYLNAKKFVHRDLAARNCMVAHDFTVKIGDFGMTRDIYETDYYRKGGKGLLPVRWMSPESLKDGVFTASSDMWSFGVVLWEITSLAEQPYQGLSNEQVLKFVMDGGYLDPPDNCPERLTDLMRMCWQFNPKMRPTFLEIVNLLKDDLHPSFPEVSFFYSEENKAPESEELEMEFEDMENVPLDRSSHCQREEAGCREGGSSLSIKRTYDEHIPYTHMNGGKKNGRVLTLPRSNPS

Pig IR = Pig IR (pig, UniProt F1SCL0 28-1382)

| Binder | hIR-A phosphorylation [EC50 nM] mean [1] [nM] | hIR-B-phosphorylation [EC50 nM] mean [2] [nM] | Rat IR phosphorylation [EC50 nM] mean (Rat IR) [nM] | Pig IR phosphorylation [EC 50 nM] mean (Pig IR) [nM] |
| --- | --- | --- | --- | --- |
| B1 | 466 | 178 | 124 | 50.6 |
| B2 | 180 | 58.8 | 85.5 | 41.5 |
| B3 | 5.58 | 57.2 | 23.6 | 4.17 |
| B4 | 36 | 22.8 | 32.1 | 8.12 |
| B5 | 1510 | 522 | 1570 | 61.4 |
| B6 | 300 | 47.9 | 92.8 | 28.4 |
| B7 | 82.5 | 57.3 | 54.8 | 10.8 |
| B8 | 332 | 94.1 | 137 | 36.6 |
| B9 | 1110 | 388 | 286 | 52.5 |
| B10 | 414 | 110 | 169 | 39.6 |
| B11 | 211 | 56.3 | 95.7 | 33.5 |
| B12 | 1410 | 90 | 440 | 21.2 |
| B13 | 1780 | 501 | 390 | 23.5 |
